Paper PMC5640855, “ZIC2 Is Essential for Maintenance of Latency and Is a Target of an Immediate Early Protein during Kaposi's Sarcoma-Associated Herpesvirus Lytic Reactivation” (Journal of Virology, 2017)

Target: T1, GST-K-Rta (Kaposi's sarcoma-associated herpesvirus …, UniProt F5HCV3 1-691)
T1 construct: also called GST-tagged K-Rta; source: recombinant baculovirus-infected Sf9 cells, purified
T1 sequence: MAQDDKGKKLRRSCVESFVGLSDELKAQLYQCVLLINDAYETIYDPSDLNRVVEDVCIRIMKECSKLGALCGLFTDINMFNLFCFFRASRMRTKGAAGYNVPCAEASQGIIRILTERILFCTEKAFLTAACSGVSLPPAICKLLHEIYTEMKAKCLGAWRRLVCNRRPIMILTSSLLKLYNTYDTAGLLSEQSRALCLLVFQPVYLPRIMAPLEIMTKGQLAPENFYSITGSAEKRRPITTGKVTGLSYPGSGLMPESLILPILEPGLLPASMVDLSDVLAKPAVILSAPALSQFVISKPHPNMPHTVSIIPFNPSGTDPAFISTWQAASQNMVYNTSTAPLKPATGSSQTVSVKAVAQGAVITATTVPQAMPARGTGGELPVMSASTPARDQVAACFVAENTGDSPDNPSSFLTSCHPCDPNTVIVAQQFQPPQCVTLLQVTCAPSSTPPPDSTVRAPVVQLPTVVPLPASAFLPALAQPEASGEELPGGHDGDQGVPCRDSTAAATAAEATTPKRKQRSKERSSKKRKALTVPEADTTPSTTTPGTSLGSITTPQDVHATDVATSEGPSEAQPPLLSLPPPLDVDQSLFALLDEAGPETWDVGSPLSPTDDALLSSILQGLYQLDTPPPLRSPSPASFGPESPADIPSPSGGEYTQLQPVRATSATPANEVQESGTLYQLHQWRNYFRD
Experiment: pull-down
Conditions: both partners purified

B1: FLAG-tagged ZIC2 (natural protein, UniProt O95409 1-532, looked up)
chain: MLLDAGPQFPAIGVGSFARHHHHSAAAAAAAAAEMQDRELSLAAAQNGFVDSAAAHMGAFKLNPGAHELSPGQSSAFTSQGPGAYPGSAAAAAAAAALGPHAAHVGSYSGPPFNSTRDFLFRSRGFGDSAPGGGQHGLFGPGAGGLHHAHSDAQGHLLFPGLPEQHGPHGSQNVLNGQMRLGLPGEVFGRSEQYRQVASPRTDPYSAAQLHNQYGPMNMNMGMNMAAAAAHHHHHHHHHPGAFFRYMRQQCIKQELICKWIDPEQLSNPKKSCNKTFSTMHELVTHVSVEHVGGPEQSNHVCFWEECPREGKPFKAKYKLVNHIRVHTGEKPFPCPFPGCGKVFARSENLKIHKRTHTGEKPFQCEFEGCDRRFANSSDRKKHMHVHTSDKPYLCKMCDKSYTHPSSLRKHMKVHESSPQGSESSPAASSGYESSTPPGLVSPSAEPQSSSNLSPAAAAAAAAAAAAAAAVSAVHRGGGSGSGGAGGGSGGGSGSGGGGGGAGGGGGGSSGGGSGTAGGHSGLSSNFNEWYV
notes: ZIC2 (zinc finger protein of the cerebellum 2); cDNA cloned into pFastBac; also called FLAG-ZIC2; source: recombinant baculovirus-infected Sf9 cells, purified
  binding result: binds
